In patent publication US20200289416:

Molecular target: T1, MMP-Ac2-26 PA (C16V2A2E2-GGGPQGIWGQGK-AMVSEFLKQAWFIENEEQEYVQTVK-NH2)
T1 chain: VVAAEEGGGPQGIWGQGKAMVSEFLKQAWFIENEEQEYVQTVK

B1: human recombinant MMP2 (protein)
chain: YNFFPRKPKWDKNQITYRIIGYTPDLDPETVDDAFARAFQVWSDVTPLRFSRIHDGEADIMINFGRWEHGDGYPFDGKDGLLAHAFAPGTGVGGDSHFDDDELWTLGEGQVVRVKYGNADGEYCKFPFLFNGKEYNSCTDTGRSDGFLWCSTTYNFEKDGKYGFCPHEALFTMGGNAEGQPCKFPFRFQGTSYDSCTTEGRTDGYRWCGTTEDYDRDKKYGFCPETAMSTVGGNSEGAPCVFPFTFLGNKYESCTSAGRSDGKMWCATTANYDDDRKWGFCPDQGYSLFLVAAHEFGHAMGLEHSQDPGALMAPIYTYTKNFRLSQDDIKGIQELYGASPDIDLGTGPTPTLGPVTPEICKQDIVFDGIAQIRGEIFFFKDRFIWRTVTPRDKPMGPLLVATFWPELPEKIDAVYEAPQEEKAVFFAGNEYWIYSASTLERGYPKPLTSLGLPPDVQRVDAAFNWSKNKKTYIFAGDKFWRYNEVKKKMDPGFPKLIADAWNAIPDNLDAVVDLQGGGHSYFFKGAYYLKLENQSLKSVKFGSIKSDWLGC
Ac2-26 release from PA nanofibers (cleavage assay, LC-MS): The MMP-Ac2-26 PA nanofibers released Ac2-26 after 24 hours of treatment with 40 nM MMP2
